The source of these data is the supplement of paper PMC10724198.

This series deals with Saccharomyces cerevisiae. Description: protein stability index of tFT-peptide fusion (C-terminal peptide) (PSI (0-1 scale)); higher = more stable (slower turnover). The following applies: temperature: 30 C. The procedure: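 MPS profiling in S. cerevisiae of the yeast C-terminome library: the last 12 aa of each annotated ORF are fused to the C-terminus of a sfGFP-mCherry timer, after a GGGS linker. Cells are FACS-sorted into 8 mCherry/sfGFP bins and deep-sequenced. PSI runs from 0 (unstable) to 1 (stable); wild type and das1Δ backgrounds, two technical replicates each.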

The mark [1] stands for this setting: genetic background: das1 deletion.

± gives the standard deviation of the averaged measurements.

For the sequence RVLNNLIVSHNK [MOT3 C-terminal 12 aa], the protein stability index turned out to be 0.7102 ± 0.003 under setting [1] and 0.735 ± 0.078 (genetic background: wild type).
The matching figures for RVSLEKEAKQHG [ERV2 C-terminal 12 aa]: 0.715 ± 0.025 and 0.673 ± 0.0072.
The matching figures for RWFKKKKETGGS [BUD2 C-terminal 12 aa]: 0.698 ± 0.0098 and 0.71919 ± 0.00068.
The like results for RYRLEKVIGKRW [SPO20 C-terminal 12 aa] were, in that order, 0.704 ± 0.03 and 0.676 ± 0.022.
Turning to SAIYLLIFRSTR [YPR177C C-terminal 12 aa], the protein stability index is, setting by setting: under setting [1], 0.56459 ± 0.00029; (genetic background: wild type) 0.569 ± 0.018.
With SAMTSKVLSFFL [RRT7 C-terminal 12 aa], the protein stability index came to 0.7094 ± 0.0069 under setting [1] and 0.696 ± 0.019 (genetic background: wild type).
As for SCAKDILGEENF [BRE4 C-terminal 12 aa], the protein stability index by setting is: under setting [1], 0.687 ± 0.0079; (genetic background: wild type) 0.661 ± 0.04.
With SDAVAEANDIDD [TOM20 C-terminal 12 aa], the protein stability index reads like this: under setting [1], 0.673 ± 0.051; (genetic background: wild type) 0.72 ± 0.047.
On to SDEGHAHEDCAK [LOG1 C-terminal 12 aa], for which the protein stability index was 0.679 ± 0.011 under setting [1] and 0.669 ± 0.015 (genetic background: wild type).
The matching figures for SFSRIDCCLPDE [TDA5 C-terminal 12 aa]: 0.72 ± 0.013 and 0.707 ± 0.051.
The like results for SGDIVAVIETLA [DUR12 C-terminal 12 aa] were, in that order, 0.51 ± 0.033 and 0.571 ± 0.049.
The like results for SGFQFPFFGEEK [MRPL7 C-terminal 12 aa] were, in that order, 0.717 ± 0.014 and 0.695 ± 0.037.
Take SGSRVVRKLFEL [FUS2 C-terminal 12 aa]: the protein stability index is, setting by setting: under setting [1], 0.6964 ± 0.0031; (genetic background: wild type) 0.7 ± 0.016.
Consider “SGSVYIGSVFLI [YGR121W-A C-terminal 12 aa]”, for which the protein stability index is, setting by setting: under setting [1], 0.692 ± 0.029; (genetic background: wild type) 0.6421 ± 0.0012.
The matching figures for “SGWSAKIPVSMI [YCR045W-A C-terminal 12 aa]”: 0.704 ± 0.014 and 0.698 ± 0.0077.
The like results for SGYDYFDVSVSG [YAT1 C-terminal 12 aa] were, in that order, 0.71 ± 0.022 and 0.712 ± 0.015.
The like results for SHKGFFQKLGCC [YCK1 C-terminal 12 aa] were, in that order, 0.692 ± 0.0098 and 0.677 ± 0.01.
As for SIDKWFFISGSV [IPP1 C-terminal 12 aa], the protein stability index reads like this: under setting [1], 0.726 ± 0.013; (genetic background: wild type) 0.709 ± 0.0086.
Turning to SIHIDDFENENN [YGL036W C-terminal 12 aa], the protein stability index came out at 0.7059 ± 0.0061 under setting [1] and 0.675 ± 0.023 (genetic background: wild type).
Turning to SINGVNLELIKD [MIX14 C-terminal 12 aa], the protein stability index by setting is: under setting [1], 0.691 ± 0.041; (genetic background: wild type) 0.635 ± 0.016.
Take SKFTGRKRRHRF [BUD23 C-terminal 12 aa]: the protein stability index is, setting by setting: under setting [1], 0.67693 ± 0.00035; (genetic background: wild type) 0.711 ± 0.05.
The matching figures for SLDKMAQQLGVE [YKR005C C-terminal 12 aa]: 0.698 ± 0.016 and 0.677 ± 0.036.
As to SLEAVSKMDKLA [AAT1 C-terminal 12 aa], the protein stability index was determined as 0.723 ± 0.012 under setting [1] and 0.679 ± 0.014 (genetic background: wild type).
The matching figures for SLQFIGEETSSL [YDL026W C-terminal 12 aa]: 0.708 ± 0.01 and 0.684 ± 0.012.
SLSLRNHNSSQL [CLN1 C-terminal 12 aa]: the protein stability index is, setting by setting: under setting [1], 0.708 ± 0.024; (genetic background: wild type) 0.701 ± 0.017.
As to SNKLKGNPNQVF [MTG1 C-terminal 12 aa], the protein stability index is 0.721 ± 0.0079 under setting [1] and 0.75045 ± 0.00033 (genetic background: wild type).
On to SNRILALGYILL [ATG32 C-terminal 12 aa], for which the protein stability index by setting is: under setting [1], 0.669 ± 0.0077; (genetic background: wild type) 0.658 ± 0.0079.
The like results for SNSLPKLKFHSM [OCA6 C-terminal 12 aa] were, in that order, 0.725 ± 0.044 and 0.681 ± 0.011.
Consider SPKEEKRFKFKL [YGR127W C-terminal 12 aa], for which the protein stability index by setting is: under setting [1], 0.739 ± 0.046; (genetic background: wild type) 0.801 ± 0.047.
The like results for SPPEEESQHGDV [SHB17 C-terminal 12 aa] were, in that order, 0.696 ± 0.022 and 0.75 ± 0.032.
The like results for SQQNNNGNQNRY [RNQ1 C-terminal 12 aa] were, in that order, 0.7168 ± 0.002 and 0.6682 ± 0.0039.
For the sequence SRSSIKNIVKPK [MRX15 C-terminal 12 aa], the protein stability index is, setting by setting: under setting [1], 0.689 ± 0.048; (genetic background: wild type) 0.75 ± 0.052.
On to SSAASSQVPAST [PTK1 C-terminal 12 aa], for which the protein stability index amounted to 0.694 ± 0.025 under setting [1] and 0.6743 ± 0.0022 (genetic background: wild type).
Take SSDRSAAEKRNT [TYR1 C-terminal 12 aa]: the protein stability index runs as follows: under setting [1], 0.699 ± 0.029; (genetic background: wild type) 0.673 ± 0.039.
Regarding SSEEGYYIAGSI [IRC23 C-terminal 12 aa], the protein stability index amounted to 0.8201 ± 0.0072 under setting [1] and 0.81 ± 0.01 (genetic background: wild type).
Consider SSGCRRLMVGYN [ERC1 C-terminal 12 aa], for which the protein stability index amounted to 0.6979 ± 0.0017 under setting [1] and 0.684 ± 0.0074 (genetic background: wild type).
The like results for SSKKNNKFRRIR [CST9 C-terminal 12 aa] were, in that order, 0.685 ± 0.019 and 0.714 ± 0.032.
As to SSVKKKLYPKSK [RIM11 C-terminal 12 aa], the protein stability index runs as follows: under setting [1], 0.704 ± 0.015; (genetic background: wild type) 0.693 ± 0.073.
Regarding STDETPDNENKQ [SGT2 C-terminal 12 aa], the protein stability index runs as follows: under setting [1], 0.6998 ± 0.0031; (genetic background: wild type) 0.67 ± 0.0077.
The matching figures for STDQLPELSFEV [TVP38 C-terminal 12 aa]: 0.699 ± 0.013 and 0.722 ± 0.0051.
On to STFTLNLEDVSK [ECM12 C-terminal 12 aa], for which the protein stability index was determined as 0.711 ± 0.0086 under setting [1] and 0.634 ± 0.016 (genetic background: wild type).
The matching figures for STSCDVIQSRNA [MET22 C-terminal 12 aa]: 0.71 ± 0.03 and 0.692 ± 0.0075.
As to SVLSGSAEFVFY [NCA3 C-terminal 12 aa], the protein stability index was determined as 0.7188 ± 0.0024 under setting [1] and 0.7148 ± 0.0061 (genetic background: wild type).
The matching figures for SVLVCFLLRRAS [YJR087W C-terminal 12 aa]: 0.506 ± 0.02 and 0.342 ± 0.0095.
Consider SVLYAIDFSAAF [EMA35 C-terminal 12 aa], for which the protein stability index reads like this: under setting [1], 0.717 ± 0.012; (genetic background: wild type) 0.703 ± 0.02.
The sequence SVPKPSQARFSV [UTR1 C-terminal 12 aa] yielded a protein stability index under setting [1] of 0.684 ± 0.025 and a protein stability index (genetic background: wild type) of 0.703 ± 0.025.
With SYKDTKRWMFKK [PSF3 C-terminal 12 aa], the protein stability index is, setting by setting: under setting [1], 0.724 ± 0.057; (genetic background: wild type) 0.715 ± 0.078.
In turn, SYLKGYIGCKIS [YPR092W C-terminal 12 aa] returned a protein stability index under setting [1] of 0.745 ± 0.042 and a protein stability index (genetic background: wild type) of 0.569 ± 0.033.
As for “TAFGISSCRDLA [YLR163W-A C-terminal 12 aa]”, the protein stability index is, setting by setting: under setting [1], 0.707 ± 0.016; (genetic background: wild type) 0.6829 ± 0.00097.
The like results for TARPFPAPNIAA [YLR349W C-terminal 12 aa] were, in that order, 0.728 ± 0.029 and 0.67 ± 0.016.
On to TASQLLEVQSKS [YGL039W C-terminal 12 aa], for which the protein stability index by setting is: under setting [1], 0.68 ± 0.023; (genetic background: wild type) 0.6694 ± 0.006.
The matching figures for TDCGLETEEIDI [RAD14 C-terminal 12 aa]: 0.663 ± 0.025 and 0.6823 ± 0.0022.
The matching figures for TDDNNIQTILLK [YIG1 C-terminal 12 aa]: 0.679 ± 0.012 and 0.704 ± 0.044.
Take TEFEKIHRNTFN [REX4 C-terminal 12 aa]: the protein stability index amounted to 0.706 ± 0.012 under setting [1] and 0.723 ± 0.033 (genetic background: wild type).
Turning to TEIDESFEMTDF [KEX1 C-terminal 12 aa], the protein stability index was 0.723 ± 0.021 under setting [1] and 0.7471 ± 0.0064 (genetic background: wild type).
The matching figures for TGFFGKLKKLFK [CRP1 C-terminal 12 aa]: 0.762 ± 0.0086 and 0.724 ± 0.0086.
The like results for TGFKDKFLDALL [PUT4 C-terminal 12 aa] were, in that order, 0.689 ± 0.014 and 0.69 ± 0.011.
For the sequence TGLAGEGDTLVT [TAG1 C-terminal 12 aa], the protein stability index by setting is: under setting [1], 0.694 ± 0.007; (genetic background: wild type) 0.685 ± 0.021.
On to THLQQVAVSGQA [SEC23 C-terminal 12 aa], for which the protein stability index is, setting by setting: under setting [1], 0.572 ± 0.0092; (genetic background: wild type) 0.618 ± 0.014.
For THMKPWYRRWFW [INA17 C-terminal 12 aa], the protein stability index runs as follows: under setting [1], 0.742 ± 0.012; (genetic background: wild type) 0.718 ± 0.018.
The like results for TIGWLQESLAGI [HOT1 C-terminal 12 aa] were, in that order, 0.706 ± 0.0076 and 0.684 ± 0.029.
The matching figures for TIISKGYAKIRD [TAF4 C-terminal 12 aa]: 0.68 ± 0.022 and 0.7 ± 0.049.
The matching figures for TIKKGTTLEPIA [GCD11 C-terminal 12 aa]: 0.6896 ± 0.0033 and 0.7 ± 0.028.
For the sequence TILHQQVNSKLH [YHR180W C-terminal 12 aa], the protein stability index by setting is: under setting [1], 0.7181 ± 0.00078; (genetic background: wild type) 0.627 ± 0.02.
The like results for TILLFYPPLLKR [YDR544C C-terminal 12 aa] were, in that order, 0.627 ± 0.0074 and 0.6119 ± 0.0047.
The like results for TIPAAKRTKPSA [LYS20 C-terminal 12 aa] were, in that order, 0.69801 ± 0.00025 and 0.703 ± 0.014.
The matching figures for TKCSLKNSISLT [VAB2 C-terminal 12 aa]: 0.677 ± 0.012 and 0.733 ± 0.086.
